Reference: article PMC5215794

Assays:
Assay in all cases: cross-linking
[1] = target: VcINDY V68C S304C (dimer interface cysteine mutant in the cysteine-free background) (Vibrio cholerae) (UniProt Q9KNE0)
[2] = target: VcINDY N90C (dimer interface cysteine mutant in the cysteine-free background) (Vibrio cholerae) (UniProt Q9KNE0)
[3] = target: VcINDY Q86C S95C (dimer interface cysteine mutant in the cysteine-free background) (Vibrio cholerae) (UniProt Q9KNE0)
[4] = target: VcINDY K316C (dimer interface cysteine mutant in the cysteine-free background) (Vibrio cholerae) (UniProt Q9KNE0)

“VcINDY V68C S304C (dimer interface cysteine mutant in the cysteine-free background) (from UniProt Q9KNE0 14-462) (natural protein)” showed a stoichiometry N [1] of 2.
In the case of “VcINDY N90C (dimer interface cysteine mutant in the cysteine-free background) (from UniProt Q9KNE0 14-462) (natural protein)”, the stoichiometry N [2] is reported as 2.
“VcINDY Q86C S95C (dimer interface cysteine mutant in the cysteine-free background) (from UniProt Q9KNE0 14-462) (natural protein)” showed a stoichiometry N [3] of 2.
Work on “VcINDY K316C (dimer interface cysteine mutant in the cysteine-free background) (from UniProt Q9KNE0 14-462) (natural protein)” yielded a stoichiometry N [4] of 2.
